Consider 41 sequences from the nanobody polyreactivity screen of Harvey et al. (2022).

A short description of the data set: yeast display, Sf9 membrane polyspecificity reagent, FACS + sequencing; frameworks hold sequencing errors. The essentials: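 Sorting gates, low and high (top ~1%), were placed on anti-HA fluorescence to track expression and on streptavidin fluorescence to track reagent binding. A clone's polyreactivity label is taken from the gate it came out of. The reagent was 10% biotinylated, detergent-solubilized Sf9 membrane, applied for 1 hour at 4 °C to galactose-induced yeast display cells.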
Regarding “QVQLVESGGGLVQAGGSLRLSCAASGRTFAAYAMGWYRQAPGKEREFVADITYSGGSTTYADSVKGRFTISRDNAKNTVYLLMNSLNPEDTAVYYCNKLAYTPGWRGFVWYDYWGQGTQVSVSS”, the “polyreactivity (PSR sort gate)” value is on record as “low polyreactivity”.

On to “QVQLVESGGGLVQAGGSLRLSCAASGRTFYVYAMGWYRQAPGNERELVATISRSGGGTYYADSVKGRFTISRDNAKNTVYLQMNSLTPEDTAVYYCAAKPYRRDYGYWGQGTQVTVSS”, for which the “polyreactivity (PSR sort gate)” value is “high polyreactivity”.

On to “QVQLVESGGGLVQAGGSLRLSCAASGITFRAYVMGWYRQEPGKERELVAAINRRGGSTYYADSVKGRFTISRDNAKNTVYLQMNSLKPEDTAVYYCAAGLYSTGYTYDYWGQGTQVTVSS”, for which the “polyreactivity (PSR sort gate)” value was “high polyreactivity”.

On to “QVQLVESGGGLVQAGGSLRLSCAASGSTFTIYAIGWSRQAPGKERELVAGITRVGSTNYADSVKGRFTISRDNAKNTVYLQMNSLKPEDTAVYYCARRDLFQAGYEYWGQGTQVTVSS”, for which the “polyreactivity (PSR sort gate)” value is recorded as “low polyreactivity”.

With “QVQLVESGGGLVQAGGSLRLSCAASGRTFRYYAMGWYRQAPGKERELVAAISQTGARTYYADSVKGRFTISRDNAKNTVYLQMNSLKPEDTAVYYCNAYSRSGHQSDGYDYWGQGTQVTVSS”, the “polyreactivity (PSR sort gate)” value was “high polyreactivity”.

Regarding “QVQLEESGGGLVQAGGSLSLSCAASGNFFVLYAMGCYRQAPGKERELVASITSDGITYYADSVKGRFTMSRDNAKNTVYLQMNSLKPEDTAVYYCAVDRSYRYLPRGDYWGQGTQVTVSS”, the “polyreactivity (PSR sort gate)” value is listed as “low polyreactivity”.

On to “QVQLVESGGLIVQAGRSIRLTCAASGSIFYSYPMGWYRQAPGKERELVAAIRFSRGTTYYADSVKGRFTISRDNAKNTVYLQMNSLKPEDTAVYYCAATLSSYSYLFEYDYWGQCTQVTVSS”, for which the “polyreactivity (PSR sort gate)” value is on record as “low polyreactivity”.

Take “QVQLVESGGGLVQAGGSLRLSCAASGRIFYRYAMGCYRQAPGKERELVAGIRSRGGRTYYADSVKGRFTISRDNAKNTVYLQMNSLKPEDTAVYYCAARYLSGTSRYYYWGQGTQVTVSS”: the “polyreactivity (PSR sort gate)” value is recorded as “high polyreactivity”.

As to “QVQLVESGGGLVQAGGSLRLSCAASGRIFRYYAMGWYRQAPGKERELVAAISSGGRTYYADSVKGRFTISRDNAKNTVYLQMNSLKPEDTAVYYCNAYAYHAGGDYWGQGTQVTVSS”, the “polyreactivity (PSR sort gate)” value is given as “high polyreactivity”.

On to “QVQLVESGGCLVQAGGTLRLSCAASGSIFWAYAMGWYRQAPGKERELVAAISRGGTTTYADSVKGRFTISRDNAKNTVYLQMNSLKPEDTAVYYCARRAVYSKRRYDYWGQGTQVTVSS”, for which the “polyreactivity (PSR sort gate)” value is reported as “low polyreactivity”.

As for “QVQLVESGGGLVHAGGSLRLSCADSGRIIGINAMGCYRQAPGKERELVAAINWSGGSTYYADSVKGRFTISRDNAKNTVYLQMNSLKPEDTAVYYCAAQKYKRVGYWGLGTQVTVSS”, the “polyreactivity (PSR sort gate)” value is “high polyreactivity”.

With “QVQLVESGGGLVQAGGSLRLSCAASGRTSTRNAMGWYRQAPGKERELVAAITRSGGGTYYADSVKGRFTISRDNAKNTVYLQMNSLKPEDTAVYYCAADQRSPSDGYEYWGQGTQVTVSS”, the “polyreactivity (PSR sort gate)” value was “low polyreactivity”.

Turning to “QVQLVESGGGLVQAGGSLRLSCAASGSIFPYVNAMGWYRQAPGKERELVASIPGGGGTKYADSVKGRFTISRDNAKNTVYLQMNSLKPEDTAVYYCNATSGNPASTAWMNYWGQGTQVTVSS”, the “polyreactivity (PSR sort gate)” value is listed as “low polyreactivity”.

With “QVQLVESGGGLVQAGGSLRLSCAASGSTFLYNTMGWYRQSPGKERELVAAITWSGGNTYYADSVKGRFTISRDNAKNTVYLQMNSLKPEDTAVYYCNAVWYPPKRKGFDYWGQGTQVTVSS”, the “polyreactivity (PSR sort gate)” value was “low polyreactivity”.

Consider “QVQLVESGGGLVQAGGSLRLSCAASGRTFGQNAMGWYRQAPGKERELVAAISASGSNTYYADSVKGRFTISRDHAKNTVYLQMNSLKPEDTAVYYCAKQVYRPGQQSRYDYWGQGTQVTVSS”, for which the “polyreactivity (PSR sort gate)” value was “low polyreactivity”.

With “QVQLVESGGGLVQAGGSLRLSCAASGLIFVYYDMGWYRQAPGKERELVAAISSSGSTYYADSVKGRFTISRDNAKNTVYLQMNSLKPEDTAVYYCAAEYLYWPFGSNYWGQGTQVTVSS”, the “polyreactivity (PSR sort gate)” value is “high polyreactivity”.

In the case of “QVQLVESGGGLVQAGGSLRLSCAASGGIFPLNAMGWYRQAPGKERELVAAISRRGGSTYYADSVKGRFTISRDNAKNTVYLQMNSLKPEDTAVYYCAAVTVRKFYKGINYWYEYWGQGTQVTVSS”, the “polyreactivity (PSR sort gate)” value was “high polyreactivity”.

Consider “QVQHVESGGGLVQAGGSLRLSCAASGRTFQYNTMGWYRQAPGKERELVAAISWGGGSTYYADSVKGRFTISRDNAKNTVYLQMNSLKPEDTAVYYCAATHYRGKGYYYWGQGTQLTVSS”, for which the “polyreactivity (PSR sort gate)” value is listed as “low polyreactivity”.

For the sequence “QVQLVESGGGLVQAGGSLRLSCAASGLIFLTYAMGWYRQAPGKERELLATISGSTGGTYYADSVKGRFTISRDNAKNSVYLKMNSLKPEDTAVYYCNRRYGRSFRWGYCYWGEGTQVTVSS”, the “polyreactivity (PSR sort gate)” value is “low polyreactivity”.

Turning to “QVQLQESGGGLVQAGGSLRLSCAASGYISTFSSEMGWYRQAPGKERELVASIAPGCTTSYADSVKGRFTISRDKAKNTVYLQMNILKPEDTAVYFCAVVYTVPASFGYWGQGTQVTVIS”, the “polyreactivity (PSR sort gate)” value was “high polyreactivity”.

On to “QVQLVESGGGLVQAGGSLRLSCAASGRTFRGYALGWYRQAPGKERELVAAISGGTTNYADSVKGRFTISRDNAKNTVYLQMNSLKPVDTAVYYCAAAQRQYWRYRLGYEYGSWGQGTQVTVSS”, for which the “polyreactivity (PSR sort gate)” value is on record as “low polyreactivity”.

As to “QVQLVESGGGLVQAGGSLRLSCAASGNIFPPNTMGWYRQAPGKERELVAVITWSDGGTYADSVKGRFTISRDNAKNTVYLQMNSLKPEDSAVYYCNADYYFAAPKGEYTAWYDYWGQGTQVTVSS”, the “polyreactivity (PSR sort gate)” value is “low polyreactivity”.

Turning to “QVQLVESGGGLVQAGGSLRLSCAASGYIFGYYAMGWYRQAPGKERELVAAIRSGGNTYYADSVKGRFTISRDNAKNTVYLQMNSLKPEDTAVYYCAKRYGRFSDYWGQGTQVTVSS”, the “polyreactivity (PSR sort gate)” value is “high polyreactivity”.

Regarding “QVQLVESGGGLVQAGGSLRLSCAASGRTFASYGMGWYRQAPGKHRELVASITRRGGSTYYADSVKGRFTISRDNAKNTVYLQMNSLKPEDTAVYYCAATRVRSASYSIEYDYWGQGTQVTVSS”, the “polyreactivity (PSR sort gate)” value is given as “high polyreactivity”.

Take “QVQLVESGGGLVQAGGSLRLSCAASGRTLPFYAMGWYRPAPGKERELVAAISRSGARTYYADSVKGRFTISRDHAKNTVYLQMNSLKPEDTAVYYFAAGFMWYIGNSKFDYWGQGTQVTVSS”: the “polyreactivity (PSR sort gate)” value is on record as “high polyreactivity”.

For “QVQLVESGGGLVQAGGSLRLSCAASGFTFRRYAMGWYRQAPGKERELVAAISRGSSTYYADSVKGRFTISRDNAKNTVYLQMNSLKPEDTAVYYCAADWEQLRGTMDYWGQGTQVTVSS”, the “polyreactivity (PSR sort gate)” value is recorded as “high polyreactivity”.

As to “QVQLVESGGGLVQAGGSLRLSCAASGRTFSWYAMGWYRQAPGKERELVAAITSVGSTNYADSVKGRFTISRDNAKNTVYLQMNSLKPEDTAVYYCAATIFVYSYRYYYWGQGTQVTVSS”, the “polyreactivity (PSR sort gate)” value was “low polyreactivity”.

Turning to “QVQLVESGGGLVQAGGSLRLSCAASGSTFLTNVMGWYRQAPGKERELVAAITIGGSTNYADSVKGRFTISRDNAKNTVYLQMNSLKPEDTAVYYCATDIRRKPRYVDYEYWGQGTQVTVSS”, the “polyreactivity (PSR sort gate)” value is recorded as “low polyreactivity”.

Take “QVQLVESGGGLVQAGGSLRLSCAASGRTFAKYAMGWYRQAPGKEREWVAAINSSGGSTYYADSVKGRFTISRDNAKNTVYLQMNSLKPEDTAVYYCAKEYYSYDVYLGVSYVGRYDYWGQGTQVTVSS”: the “polyreactivity (PSR sort gate)” value was “low polyreactivity”.

As for “QVQLVESGGGLVQAGGSLRLSCAASGLTFYYNTMGWYRQAPGKERELVAAINWSGGRTYYADSVKGRFTISRDNAKNTVYLQMNSLKPEDTAVYYCNAASSRALGYAYDYWGQGTQVTVSS”, the “polyreactivity (PSR sort gate)” value is “high polyreactivity”.

For the sequence “QVQLVESGGGLVQAGGSLRLSCAASGSICGGYAMGWYRQAPGKERELVAGITRSGGSTYYADSVKGRFTISRDNAKNTVYLQMNSLKPEDTAVYYCAVEIQFYRSPRKVRSYDYWGQGTQVTVSS”, the “polyreactivity (PSR sort gate)” value is listed as “low polyreactivity”.

As for “QVQHVESGGALVQAGGILRLSCAASGYTFYVYAMGWYRQAPGKERELVAAISGGSNTYYADSVKGRFTISRDNGKNTVYLQMNSLKPEDTAVYYCAKSSTTYRQRARYDYWGQGTQVTVSS”, the “polyreactivity (PSR sort gate)” value is listed as “high polyreactivity”.

Take “QVQLVESGGGIVQPGGSLRLSCAASGSIFGYNAIGWYRQAPGKERELVAAISTSSGSTYYADSVKGRFTISRDNAKNTVFLQMNSLKPEDTAVYYCAARDRPFGRYDYWGQATQVTVSS”: the “polyreactivity (PSR sort gate)” value was “low polyreactivity”.

Take “QVQLVESGGGLVQAGGSLRLSCAASGYTFRSYAMGWYRQAPGKERELVAGIDGSGGTTYYADSVKGRFTISRDNAKNTVYLQMNSLKPEDTAVYYCAAEAYKHGVWDYDYWGQGTQATVSS”: the “polyreactivity (PSR sort gate)” value is given as “low polyreactivity”.

As for “QVQLVESGGGLVQAGGSLRLSCAASGRTFSAYAMGWYRQAPGKERELVAAISRRGGSTYYADSVKGRFTISRDNAKNTVYLQMNSLKPEDTAVYYCAAKIYYRSRAEMDWGQGTQVTVSS”, the “polyreactivity (PSR sort gate)” value is “high polyreactivity”.

Consider “QVQLVESGGGLVQAGGSLRLSCAASGSTFTGYAMGWYRQAPGKERELVAAISISGGRTFYADSVKGRFTISRDNAKNTVYLQMNSLKPEDTAVYFCAAYLRGSKYSFDYWVQGTQVTVSS”, for which the “polyreactivity (PSR sort gate)” value is recorded as “high polyreactivity”.

Consider “QVQLVESGGGLVQAVGSLRLSCAASGFTFGRYAMGWYIQAPAKEREFVASISARGGNTFYADSVKGRFTISRDNAKNTVYLQMNSLKPEDTAVYYCNAYYLAEYDYWGQGTQVTVSS”, for which the “polyreactivity (PSR sort gate)” value was “high polyreactivity”.

On to “QVQLVESGGGLVQAGGSLRLSCAASGFIFYYNTMGWYRQAPGKERELVASITWSGDTTYYADSVKGRFSISRDNAKNTVYLQMNSLIPEDTAVYYCAAVHYYPYRRYDYWGQGTQVTVSS”, for which the “polyreactivity (PSR sort gate)” value was “low polyreactivity”.

As for “QVQLVESGGGVVQAGGTLLLICAASGSTFIVNAMVWYRQAPRKERELVAAITGSGGNTYYADSVKGRFTISRDNAKNTVYLQINTLKPEDTAVYYCAAETYYGRIYWYIRDYWGQGTQVSVSS”, the “polyreactivity (PSR sort gate)” value is “low polyreactivity”.

Regarding “QVQLVESGGGLVQAGGSLRLSCAASGSISYKYAMGWYRQAPGKERELVAAISSSGGRTYYADSVKGRFTISRDNAKNTVYLQMNSLKPEDTAVYYCNADVLFYTYYTRGRFDFDYWGQGTQVTVSS”, the “polyreactivity (PSR sort gate)” value is recorded as “low polyreactivity”.

Consider “QVQLVESGGGLVQAGGSLRLSCAASGRTSRNNVMGWYRQAPGKERELVAAITKRTDRTYYADSVKGRFTISRDNAKNTVYLQMNSLKPEDTAVYYCAADLSLSTGGRAFPTYGYWGQGTQVTVSS”, for which the “polyreactivity (PSR sort gate)” value is on record as “high polyreactivity”.
